Values quoted from earlier work, collected in article PMC2709459 (Biochimica et biophysica acta, 2008).

Target: C5aR
Conditions: C5aR in transfected CHO cells

B1: C5a: complement C5a fragment, anaphylatoxin ligand of C5aR (protein, UniProt P01031 678-751, looked up)
C5a anaphylatoxin: TLQKKIEEIAAKYKHSVVKKCCYDGACVNNDETCEQRAARISLGPRCIKAFTECCVVASQLRANISHKDMQLGR
modifications: C5a anaphylatoxin
  Kd: 10 nM
